Laboratory results from the Human Domainome abundance scans (Beltran et al. 2025).
± gives the uncertainty stated by the source.

B1: Serine/threonine-protein kinase A-Raf, residues 21 to 89; numbered along this chain, P10398 (parent)
chain: VKVYLPNKQRTVVTVRDGMSVYDSLDKALKVRGLNQDCCVVYRLIKGRKTVTAWDTAIAPLDGEELIVE
B2: POU domain, class 2, transcription factor 1, residues 285 to 354; numbered along this chain, P14859 (parent)
chain: LEELEQFAKTFKQRRIKLGFTQGDVGLAMGKLYGNDFSQTTISRFEALNLSFKNMCKLKPLLEKWLNDAE

Variants of: B1
Assay: abundance fitness (aPCA) (normalised: wild type 0, dead -1); higher = more abundant; growth selection in yeast, the domain comes from the species named
Conditions: Homo sapiens

Variant | abundance fitness
V1R | -0.487 ± 0.48
V1F | -0.358 ± 0.21
V1A | -0.684 ± 0.21
R10V | 0.187 ± 0.057
R10I | 0.258 ± 0.11
R10L | -0.059 ± 0.047
R10H | 0.041 ± 0.12
R10S | 0.177 ± 0.052
R10T | 0.111 ± 0.063
R10D | -0.281 ± 0.092
R10A | -0.15 ± 0.059
R10P | -0.318 ± 0.075
R10K | -0.002 ± 0.058
R10C | 0.025 ± 0.077
R10N | 0.042 ± 0.12
R10E | 0.118 ± 0.064
R10Q | 0.036 ± 0.076
R10Y | 0.051 ± 0.096
R10M | 0.139 ± 0.06
R10W | 0.067 ± 0.048
R10G | -0.158 ± 0.045
R10F | 0.147 ± 0.11
Y4T | -0.101 ± 0.061

Variant | abundance fitness
Y4R | 0 ± 0.035
Y4H | 0.048 ± 0.094
Y4Q | 0.009 ± 0.059
Y4E | -0.133 ± 0.048
Y4V | 0.011 ± 0.047
Y4L | 0.068 ± 0.042
Y4S | -0.022 ± 0.047
Y4A | -0.217 ± 0.061
Y4F | -0.063 ± 0.077
Y4M | 0.032 ± 0.06
Y4C | -0.366 ± 0.098
Y4P | -0.96 ± 0.23
Y4K | 0.069 ± 0.059
Y4D | -0.601 ± 0.11
Y4I | -0.001 ± 0.15
Y4W | -0.045 ± 0.05
Y4G | -0.663 ± 0.069
V15L | -0.105 ± 0.042
V15Q | -0.686 ± 0.15
V15H | -0.122 ± 0.096
V15I | -0.088 ± 0.17
V15D | -0.33 ± 0.1
V15N | -0.408 ± 0.13

Variant | abundance fitness
V15R | -0.822 ± 0.087
V15A | -0.017 ± 0.052
V15T | -0.147 ± 0.067
V15P | -0.257 ± 0.072
V15G | -0.17 ± 0.036
V15F | -0.001 ± 0.075
V15C | 0 ± 0.054
V15S | -0.179 ± 0.053
V15K | -0.797 ± 0.19
V15M | -0.234 ± 0.082
L5Q | -0.87 ± 0.21
L5A | -0.772 ± 0.15
L5R | -1.1 ± 0.12
L5V | -0.896 ± 0.12
L5F | 0.102 ± 0.097
L5W | 0.113 ± 0.062
L5E | -0.844 ± 0.21
L5S | -0.818 ± 0.1
L5T | -0.916 ± 0.13
L5P | -0.778 ± 0.18
L5M | -0.064 ± 0.058
L5K | -0.99 ± 0.16
L5C | -0.784 ± 0.14

Variants of: B2
Assay: as above
Conditions: Homo sapiens

Variant | abundance fitness
L58V | 0.005 ± 0.02
A47R | -0.044 ± 0.022
L1N | -0.074 ± 0.096
L1W | -0.02 ± 0.051
L1R | 0.142 ± 0.12
R15I | -1.1 ± 0.48
K59A | -0.028 ± 0.022
K59H | -0.014 ± 0.039
D36F | -0.19 ± 0.062
D36I | -0.006 ± 0.075
D36S | -0.05 ± 0.029
D36R | -0.047 ± 0.023
M29H | -0.689 ± 0.059
M29Q | -0.497 ± 0.045
L32K | 0.031 ± 0.022
K53V | -0.048 ± 0.039
F52G | -0.059 ± 0.025
K64E | -0.02 ± 0.029
K64D | -0.037 ± 0.05
L48M | -0.007 ± 0.035
L48N | -0.03 ± 0.059
L66S | -0.167 ± 0.039
S51M | -0.472 ± 0.04
S51Q | -0.09 ± 0.028
E2S | -0.057 ± 0.031

Variant | abundance fitness
E2V | -0.067 ± 0.045
E2Q | -0.043 ± 0.037
G30C | 0 ± 0.025
G30W | 0.006 ± 0.024
G30S | -0.019 ± 0.026
Y33V | -0.151 ± 0.06
Y33N | -0.075 ± 0.034
Y33T | -0.061 ± 0.024
F11I | -0.402 ± 0.048
T41P | -0.209 ± 0.021
T41K | 0.022 ± 0.086
N35D | 0.035 ± 0.042
G23K | 0.065 ± 0.055
G23D | 0.023 ± 0.074
G23M | -0.023 ± 0.043
G23W | -0.069 ± 0.062
A69I | -0.027 ± 0.021
A69M | 0.003 ± 0.02
A28Q | 0.048 ± 0.05
F37A | -0.081 ± 0.033
F37K | -0.184 ± 0.048
L50A | -0.121 ± 0.024
E5D | -0.072 ± 0.05
D24G | -0.091 ± 0.041
D24S | -0.097 ± 0.023

Variant | abundance fitness
E46D | -0.754 ± 0.17
A8K | -0.72 ± 0.076
A8L | -0.252 ± 0.029
A8P | -0.447 ± 0.031
C56Q | 0.063 ± 0.041
C56L | -0.016 ± 0.033
K57E | -0.004 ± 0.068
E3N | -0.07 ± 0.078
E3Q | -0.078 ± 0.034
K17L | -0.016 ± 0.019
K17S | -0.003 ± 0.019
K31I | -0.495 ± 0.31
F20N | -0.197 ± 0.045
F20Y | 0.06 ± 0.062
T21E | -0.191 ± 0.046
T21K | -0.065 ± 0.033
T21I | -0.598 ± 0.055
I42D | -1.08 ± 0.1
Q6M | -0.038 ± 0.021
Q6H | -0.001 ± 0.025
G26P | -0.276 ± 0.035
G26I | -0.076 ± 0.044
R14F | -0.32 ± 0.068
R14M | -0.089 ± 0.057
L27Q | 0.003 ± 0.029

Variant | abundance fitness
L27E | -0.002 ± 0.066
T10N | 0.004 ± 0.065
T10F | 0.023 ± 0.039
T10I | 0.01 ± 0.061
L18G | -0.312 ± 0.061
R44L | -0.026 ± 0.018
R44S | 0.015 ± 0.036
R44Y | -0.155 ± 0.1
M55C | -0.12 ± 0.029
I16F | -0.131 ± 0.025
I16E | 0.073 ± 0.082
I16K | -0.021 ± 0.027
G34I | -0.189 ± 0.12
G34F | -0.276 ± 0.1
V25W | -0.645 ± 0.11
V25G | -0.711 ± 0.12
T40F | 0.067 ± 0.068
Q22R | -0.011 ± 0.024
S38A | -0.038 ± 0.031
D68K | -0.018 ± 0.016
D68H | -0.012 ± 0.05
Q39T | 0.008 ± 0.035
Q39L | -0.026 ± 0.036
